According to patent US20220218805A1 (UNIVERSITY OF BRITISH COLUMBIA, published 2022):
Ends that are not written are not given here.

T1: (4,1) cyclo(CGGGGKLDFG) (SEQ ID NO: 19) conjugated to BSA (not fully specified (residue 1); printed as cyclo(CGGGGKLDFG); also: conjugated to BSA (maleimide coupling))
T1 construct: Screening antigen of the ELISA; also called KLDF (4,1); cyclic peptide-BSA
T1 peptide: cyclo(CGGGGKLDFG)

T2: Linear CGGGGKLDFG (SEQ ID NO: 19) conjugated to BSA (also: conjugated to BSA)
T2 construct: Screening antigen of the ELISA; also called corresponding linear peptide (4,1); linear peptide-BSA
T2 peptide: CGGGGKLDFG

T3: (3,1) cyclo(CGGGKLDFG) (SEQ ID NO: 15) conjugated to BSA (not fully specified (residue 1); printed as cyclo(CGGGKLDFG); also: conjugated to BSA (maleimide coupling))
T3 construct: Screening antigen of the ELISA; also called KLDF (3,1); cyclic peptide-BSA
T3 peptide: cyclo(CGGGKLDFG)

T4: (3,2) cyclo(CGGGKLDFGG) (SEQ ID NO: 16) conjugated to BSA (not fully specified (residue 1); printed as cyclo(CGGGKLDFGG); also: conjugated to BSA (maleimide coupling))
T4 construct: Screening antigen of the ELISA; also called KLDF (3,2); cyclic peptide-BSA
T4 peptide: cyclo(CGGGKLDFGG)

T5: Linear CGGGKLDFGG (SEQ ID NO: 16) conjugated to BSA (also: conjugated to BSA)
T5 construct: Screening antigen of the ELISA; also called corresponding linear peptide (3,2); linear peptide-BSA
T5 peptide: CGGGKLDFGG

T6: Linear CGGGKLDFG (SEQ ID NO: 15) conjugated to BSA (also: conjugated to BSA)
T6 construct: Screening antigen of the ELISA; also called corresponding linear peptide (3,1); linear peptide-BSA
T6 peptide: CGGGKLDFG


Assays:
[1] = target: T1, (4,1) cyclo(CGGGGKLDFG) (SEQ ID NO: 19) …; assay: indirect ELISA, hybridoma supernatant on cyclic peptide-BSA
Method: (§1) Tissue culture supernatants from the hybridomas were tested by indirect ELISA on screening antigen (cyclic peptide-BSA and linear peptide-BSA) and were probed for both IgG and IgM antibodies using a Goat anti-IgG/IgM(H&L)-HRP secondary antibody and developed with TMB substrate.

tau oligomers (SynAging) [2] = target: T7, tau oligomers (SynAging) (UniProt P10636-8 1-441, limits assumed); assay: SPR, oligomer RU / monomer RU (reference: tau monomers)
T7 construct: also called misfolded oligomeric tau polypeptide
T7 sequence (P10636 other isoform, or with tags, fused parts or gaps limits assumed): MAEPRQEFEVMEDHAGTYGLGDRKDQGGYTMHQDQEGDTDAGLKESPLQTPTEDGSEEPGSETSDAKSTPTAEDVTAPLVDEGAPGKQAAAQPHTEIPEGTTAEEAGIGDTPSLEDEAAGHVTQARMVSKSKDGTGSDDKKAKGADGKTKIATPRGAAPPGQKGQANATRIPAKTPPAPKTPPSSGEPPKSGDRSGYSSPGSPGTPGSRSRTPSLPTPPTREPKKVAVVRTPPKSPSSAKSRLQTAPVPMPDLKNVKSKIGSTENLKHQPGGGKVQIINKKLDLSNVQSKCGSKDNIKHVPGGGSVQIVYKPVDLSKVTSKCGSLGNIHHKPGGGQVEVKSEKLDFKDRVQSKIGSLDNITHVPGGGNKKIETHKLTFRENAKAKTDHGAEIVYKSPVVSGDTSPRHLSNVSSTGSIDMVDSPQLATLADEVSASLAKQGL
Method: (§2) Antibodies were tested for their ability to bind monomeric tau polypeptide as well as misfolded oligomeric tau polypeptide using surface plasmon resonance. Surface plasmon resonance measurements were performed using a Molecular Affinity Screening System (Sierra Sensors, Hamburg, Germany). Tau monomers (Stressmarq, Victoria, BC, Canada) or tau oligomers (SynAging, Vandoeuvre-les-Nancy, France) were immobilized on high amine capacity sensorchips and hybridoma supernatants (50% dilution) were injected over the immobilized surfaces at 10 μl/minute for 4 min followed by a 5 min dissociation phase. Mouse IgG1 was used as a negative control and a pan-tau reactive antibody was used as a positive control. The reverse orientation was used for purified antibodies: the mAbs were immobilized covalently on the surface of sensorchips (8000-12000 RUs) and serial dilutions of tau monomers or oligomers were injected over the surface.

[3] = target: T2, Linear CGGGGKLDFG (SEQ ID NO: 19) …; assay: indirect ELISA, hybridoma supernatant on linear peptide-BSA
Method: as §1

tau oligomers (SynAging) [4] = target: T7, tau oligomers (SynAging); assay: SPR, hybridoma supernatant over immobilized tau oligomers
Method: as §2

[5] = target: T8, tau monomers (Stressmarq) (UniProt P10636-8 1-441, limits assumed); assay: SPR, hybridoma supernatant over immobilized tau monomers
T8 construct: also called monomeric tau polypeptide
T8 sequence (P10636 other isoform, or with tags, fused parts or gaps limits assumed): as above
Method: as §2

[6] = target: T3, (3,1) cyclo(CGGGKLDFG) (SEQ ID NO: 15) …; assay: indirect ELISA, hybridoma supernatant on cyclic peptide-BSA
Method: as §1

[7] = target: T1, (4,1) cyclo(CGGGGKLDFG) (SEQ ID NO: 19) …; assay: indirect ELISA on other cyclic peptide-BSA conjugates
[8] = target: T4, (3,2) cyclo(CGGGKLDFGG) (SEQ ID NO: 16) …; assay: as above
[9] = target: T4, (3,2) cyclo(CGGGKLDFGG) (SEQ ID NO: 16) …; assay: indirect ELISA, hybridoma supernatant on cyclic peptide-BSA
Method: as §1

[10] = target: T5, Linear CGGGKLDFGG (SEQ ID NO: 16) …; assay: indirect ELISA, hybridoma supernatant on linear peptide-BSA
Method: as §1

[11] = target: T6, Linear CGGGKLDFG (SEQ ID NO: 15) …; assay: as above
Method: as §1

| Binder | OD [1] [OD] | Ratio (O/M) (tau oligomers (SynAging) [2]) | OD [3] [OD] | binding response (RU) (tau oligomers (SynAging) [4]) | binding response (RU) [5] [RU] | OD [6] [OD] | binding result [7] | binding result [8] | OD [9] [OD] | OD [10] [OD] | OD [11] [OD] |
| --- | --- | --- | --- | --- | --- | --- | --- | --- | --- | --- | --- |
| Ab3 (clone 2C7) (antibody, V domains shown, tested as hybridoma supernatant; kappa light chain) VH: QVTLKESGPGILKPSQTLSLTCSFSGFSLSTSGMGVGWIRQPSGKGLEWLAHIWWDDDKYYNPSLKNRLTISKDTSRNQVFLKITSVDTADTATYYCVRSIYYYDSSPYYYVMDYWGQGTSVTVSS VL: DIVMTQSHKFMSTSVGDRVSITCKASQDVSIAVAWYQQKPGQSPKLLIYSASYRNTGVPDRFTGSGSGTDFTFTISSVQAEDLAVYYCQQHYSSPLTFGAGTKLELK | 1.79 | 1.3 | 1.61 | 269 | 201 | – | – | – | – | – | – |
| Ab29 (clone 12D11) (antibody, V domains shown, tested as hybridoma supernatant; kappa light chain) VH: QIQLVQSGPELKKPGETVKISCKASGYTFTNYGMNWVKQAPGKGLKWMGWINTYSGEPTYVDDFKGRFAFSLETSASTAYLQINNLKNEDMATYFCARSPGAYYTLDYWGQGTSVTVSS VL: DIVMSQSPSSLAVSAGEKVTMSCKSSQSLLNSRTRKNYLAWYQQKPGQSPKLLIYWASTRESGVPDRFTGSGSGTDFTLTISSVQAEDLAVYYCKQSYNLYTFGGGTKLEIK | – | 2.1 | – | 6.2 | 3 | 1.35 | no binding | no binding | – | – | – |
| Ab10 (clone 9D12) (antibody, V domains shown, kappa light chain) VH: QIQLVQSGPELKKPGETVKISCKASGYTFTNYGMNWVKQAPGKGLKWMGWINTYTGEPTYTDDFKGRFAFSLETSASTAYLQINNLKNEDTATYFCGRGIRDYYTMDYWGQGTSVTVSS VL: DIVMSQSPSSLAVSAGEKVTMSCKSSQSLLNNRTRKNYLAWYQQKPGQSPKLLIYWASTRESGVPDRFTGSGSGTDFTLTISSVQAEDLAVYYCKQSYNLYTFGGGTKLEIK | – | 2.7 | – | 14 | 5.2 | – | – | – | 1.6 | 0.78 | – |
| Ab12 (clone 10B10) (antibody, V domains shown, tested as hybridoma supernatant; kappa light chain; also called 10B10.1) VH: QIQLVQSGPELKKPGETVKISCKASGYTFTNFGMNWVKQAPGKGLKWMGWINTFTGEPTYVDDFKGRFAFSLETSATTAYLQINNLKNEDTATYFCARSPGRVYTLDYWGQGTSVTVSS VL: DIVMSQSPSSLAVSAGEKVTMSCKSSQSLLNSRTRKNYLAWYQQKPGQSPKLLIYWASTRESGVPDRFTGSGSGTDFTLTISSVQAEDLAVYYCKQSYNLYTFGGGTKLEIK | – | 2.9 | – | 14.5 | 5 | – | – | – | 1.74 | 0.784 | – |
| Ab11 (clone 9E4) (antibody, V domains shown, kappa light chain; The clone name 9E4 is also printed for Ab27; also called 9E4.1) VH: DVQVQESGPGLVKPSQSLSLTCTVTGYSITSDYAWTWIRQFPGNKLEWMGYISYSGSTSYNPSLKSRLSITRDTSKNQFFLQLNSVTTEDTATYYCAAYYRYGLAYFAYWGQGTLVTVSA VL: not shown | – | 2.6 | – | 17 | 6.5 | – | – | – | 1.64 | 0.232 | – |
| Ab13 (clone 10C9) (antibody, V domains shown, tested as hybridoma supernatant; kappa light chain) VH: EVQLQQSGTVLARPGASVKMSCKASGYRFTSYWMYWVKQRPGQGLEWIGAIYPGNSDTIYNQRFKGKATLTAVTSASTAYMELSSLANEDSAVYFCTRPYFDSWGQGTTLTVSS VL: not shown | – | 3.1 | – | 14.7 | 4.8 | – | – | – | 1.29 | – | – |
| Ab14 (clone 10D4) (antibody, V domains shown, tested as hybridoma supernatant; kappa light chain) VH: DVQLQESGPGLVKPSQSLSLTCTVTGFSITSDYAWNWIRQFPGNKLEWMGFIRYSGNTRFNPSLKGRGSITRDTSKNQFFLQLNSVTTEDTATYYCASTLEDSYWYFDVWGAGTTVTVSS VL: DVLMTQTPLSLPVSLGDQASISCRSSQSIVHTNGNTYLEWYLQKPGQSPKLLIYKVSNRFSGVPDRFSGSGSGTDFTLKISRVEAEDLGVYYCFQGSHVPLTFGAGTKLELK | – | 2.6 | – | 18 | 6.9 | – | – | – | 1.7 | 0.788 | – |
| Ab15 (clone 10D9) (antibody, V domains shown, tested as hybridoma supernatant; kappa light chain) VH: QVQLQQSGAELVKPGASVKLSCKASGYTFTSYYMFWVKQRPGQGLEWIGEINPSNGGSNFNEKFKSKATLTVDKSSSTAYMQLSSLTSEDSAVYYCTRGAFWGQGTLVTVSA VL: not shown | – | 3.7 | – | 10.9 | 3 | – | – | – | 1.58 | 0.774 | – |
| Ab21 (clone 2C6) (antibody, V domains shown, tested as hybridoma supernatant; kappa light chain; also called 2C6.1) VH: EVQLQQSGAELVKPGASVKLSCTASGFNIKDTHMHWVKQRPEQGLEWIGKIDPSNGNTQYDPKFQGKATITADTSSNTAYLQLSSLTSEDTAVYYCATGFAYWGQGTLVTVSA VL: DIQMTQSPASLSASVGETVTITCRASGNIHNYLAWYQQKQGKSPQLLVYNAKTLADGVPSRFSGSGSGTQYSLKINSLQPEDFGSYYCQHFWYTPWTFGGGTKLEIK | – | 1.9 | – | 6.6 | 3.5 | 1.21 | – | – | – | – | – |
| Ab23 (clone 8E11) (antibody, V domains shown, kappa light chain; also called 8E11.1) VH: QVQLQQSGAELVRPGSSVKISCKASGYAFSSYWMNWVKQRPGQGLEWIGQIYPGDGDTNYNGKFKGKATLTADKSSSTAYMQLSSLTSEDSAVYLCASQIYDGYYTFTYWGQGTLVTVSA VL: DIVMSQSPSSLAVSAGEKVTMSCKSSQSLLNSRTRKNYLAWYQQKPGQSPKLLIYWASTRVSGVPDRFTGSGSGTDFTLTISSVQAEDLAVYYCKQSYNLWTFGGGTKLEIK | – | 2.2 | – | 10.2 | 4.6 | 1.19 | – | – | – | – | 1.69 |
